Measurements published in article PMC3269530 (Journal of Molecular Biology, 2011).

Tests used:
[1] = system: ArfA-c; assay type: binding, M. tuberculosis
[2] = molecular target: ArfA-c (Mycobacterium tuberculosis, UniProt P9WIU5); test: biochemical; assay type: binding
[3] = system: ArfA (S302 amide proton, β3-α4 loop); test: Saturation transfer difference NMR; assay type: binding, M. tuberculosis
[4] = assay type: binding, Mycobacterium tuberculosis, strain H37Rv; settings: qualitative

CC(=O)N[C@H]1C(OP(=O)(O)OP(=O)(O)OC[C@H]2O[C@@H](n3ccc(=O)[nH]c3=O)[C@H](O)[C@@H]2O)O[C@H](CO)[C@@H](O)[C@@H]1O[C@H](C)C(=O)N[C@@H](C)C(=O)N[C@H](CCC(=O)N[C@@H](CCCCN)C(=O)N[C@H](C)C(=O)N[C@H](C)C(=O)O)C(=O)O (stereo partly drawn) [UMKP, uridine-5'-diphosphate–MurNAc–L-Ala–D-γ-Glu–L-Lys–D-Ala–D-Ala]
effect on the NMR spectrum of ArfA-c [1]: no effect

CC(=O)N[C@H]1[C@@H](OP(=O)(O)OP(=O)(O)OC[C@H]2O[C@@H](n3ccc(=O)[nH]c3=O)[C@H](O)[C@@H]2O)O[C@H](CO)[C@@H](O)[C@@H]1O[C@H](C)C(=O)N[C@@H](C)C(=O)N[C@H](CCC(=O)N[C@@H](CCC[C@@H](N)C(=O)O)C(=O)N[C@H](C)C(=O)N[C@H](C)C(=O)O)C(=O)O [UMDP, uridine-5'-diphosphate–MurNAc–L-Ala–D-γ-Glu–m-DAP–D-Ala–D-Ala (Park's nucleotide)]
Kd [2]: ~1 mM

uridine-5'-diphosphate–MurNAc–L-Ala–D-γ-Glu–m-DAP–D-Ala– D-Ala [UMDP]
proximity of S302 amide proton to MurNAc methyl protons [3]: in some proximity
Kd [1]: ~1 mM

B1: ArfA-c: C domain of M. tuberculosis ArfA (Rv0899), residues 196–326 (protein)
chain: GQAPPGPPASGPCADLQSAINAVTGGPIAFGNDGASLIPADYEILNRVADKLKACPDARVTINGYTDNTGSEGINIPLSAQRAKIVADYLVARGVAGDHIATVGLGSVNPIASNATPEGRAKNRRVEIVVN
affinity for polymeric M. tuberculosis peptidoglycan [4]: strong (enough to precipitate the protein)
temperature of thermal unfolding, pH 4 (pH4, 15 µM protein, Sypro orange, 20-95°C, 0.03°C per second, Fig. 2d): 65.0 °C
temperature of thermal unfolding, pH 7 (pH7, 15 µM protein, Sypro orange, 20-95°C, 0.03°C per second, Fig. 2d): 63.2 °C
increase in temperature of thermal unfolding on lowering pH from 7 to 4 (pH 7 to 4, Sypro orange DSF, Fig. 2d): 2 °C

B2: ArfA-bc: joint B and C domains of ArfA, residues 73–326 (protein)
chain: GASALSLSLLSISRSGNTVTLIGDFPDEAAKAALMTALNGLLAPGVNVIDQIHVDPVVRSLDFSSAEPVFTASVPIPDFGLKVERDTVTLTGTAPSSEHKDAVKRAATSTWPDMKIVNNIEVTGQAPPGPPASGPCADLQSAINAVTGGPIAFGNDGASLIPADYEILNRVADKLKACPDARVTINGYTDNTGSEGINIPLSAQRAKIVADYLVARGVAGDHIATVGLGSVNPIASNATPEGRAKNRRVEIVVN
stabilization provided by the disulfide bond (GSSG vs DTT, Sypro orange DSF, Fig. 2a): about 1 °C
